Target: SARS-CoV-2 RBD (residues V320 to G550, strain Wuhan-Hu-1), C-terminal His tag (SARS-CoV-2, UniProt P0DTC2 320-550)
Test: BLI

B1: human-mouse chimeric antibody 3C1 (c3C1) (antibody, V domains shown)
VH: EVQLQESGPSLVKPSQTLSLTCSVTGDSITNGYWNWIRKFPGNKLEYMGYISYSGSTYYSPSLKSRISITRDTSKNQHYLQLNSVTSEDTATYYCASDYHGSKYYFDYWGQGTTLTVSS
VL: DIVMTQSHKFMSTSVGHRVSITCKASQDVGNDVAWYQQKPGQSPKLLIYWASTRHTGVPDRFTGSGSGTDFTLTISNVQSEDLADYFCQQYNRYPYTFGGGTKLEIK
B1 was tested, and the koff was less than 1e-07 s⁻¹.

From PMC7801428 (2021)
